In patent US5688488A, “Composition and method for tumor imaging” (priority 1995, dated 1997):
Blank lines part the entries; values can stand above or below the molecule they belong to.

Key:
physchem = assay type: physicochemical; conditions: water
Procedure: The crude product contained a mixture of folate-deferoxamine conjugates, wherein the folate is linked to DF via its α-carboxyl or γ-carboxyl group as well as unreacted folic acid. The two isomers of DF-folate were isolated and purified on a weak anion-exchange column. Briefly, the product mixture was loaded onto a 1.5 cm×15 cm […] column pre-equilibrated in 10 mM NH4 CO3 buffer (pH 7.9). The column was washed with 50 mL 10 mM NH4 HCO3 and then eluted with a 500 mL gradient of 80-180 mM NH4 HCO3 followed by 150 mL 500 mM NH4 HCO3. Three folate-containing peaks were obtained as detected by UV absorbance at 363 nm. Each peak was collected, lyophilized, and redissolved in deionized water. The purity of each component was confirmed by reverse-phase high pressure liquid chromatography (HPLC) with a 10 mm×250 mm Licrosorb RP-18 column (Altech, Deerfield, Ill.), and evaluation of the conjugates' molecular weights was determined by fast-atom bombardment mass spectroscopy (FAB-MS). The characteristic pKa values of the two DF-folate isomers were obtained by titration on a pH/ion analyzer (Corning, Corning, N.Y.). […] Since the two isoforms of DF-folate conjugate retain either a free γ-carboxyl or free α-carboxyl, they can be distinguished from each other and from unreacted folic acid by their characteristic pKa values, which were determined by titration.

[1] = system: membrane transport protein; conditions: facilitated transport by membrane transport protein; cited from earlier work
[2] = target: membrane-bound folate-binding-protein receptor (FBP); conditions: cited from earlier work
[3] = system: Rat pheochromocytoma (PC-12) cells; assay: Rat pheochromocytoma cell uptake of biotin conjugated proteins, fluorescent microscope; assay type: cell-based; conditions: 37° C., 5, 15 and 33 minutes
Procedure: Rat pheochromocytoma (PC-12) cells were obtained from America Type Culture Collection and were grown (37° C., 5% CO2 in humidified air) attached to plastic flasks for 2 to 3 weeks until confluent in a medium of 85% RMPI 1640, 10% v/v heat inactivated horse serum, and 5% fetal calf serum containing 1% streptomycin-penicillin.
Biotin and fluorescein labeled insulin was prepared.
The rat PC12 cells were grown in modified RMPI 1640 medium as a monolayer on the bottom of a culture flask. Before removing the cells, the monolayer was washed with a 20 ml portion of fresh Locke's solution. The cells were then displaced into 20 ml of the Locke's solution by gentle agitation with a stream Locke's solution. […] The tubes were allowed to incubate at 37° C. At intervals of 5, 15 and 33 minutes, 0.5 ml of each cell suspension was removed and pelleted at 10,000×g for 10 seconds. The cell pellet was washed and repelleted twice in 1 ml Locke's solution and then fixed by addition of 200 l of a 2% formalin solution in phosphate buffered saline. Thirteen microliters of the fixed cell suspension was then added to a microscope slide and viewed with the fluorescent microscope to detect internalized proteins.

[4] = system: KB cells (a human nasopharyngeal cell line); assay: Uptake of ^125 I-labeled folate-labeled protein by KB cells; assay type: cell-based
human HeLa cells = assay: Uptake of ^125 I-labeled folate-labeled RNase by HeLa cells; assay type: cell-based
[5] = 17 hours after intraperitoneal injection
BHK cells = assay: Ribonuclease-riboflavin uptake by BHK cells; assay type: cell-based; conditions: 10 μg/ml, various times (FIG. 4)
KB cells = assay: Visualization of ribonuclease endocytosis by KB cells using a confocal microscope; assay type: cell-based, human; conditions: 60 minute incubation
Procedure: RNase labeled only with fluoroscein was used as a control. Following extensive dialysis against growth medium, the control and folate-labeled RNase samples were added to separate cultures of KB cells. After 60 minute incubation, the cells were thoroughly washed and examined for uptake. […] Furthermore, using the confocal's capability of focusing on a single horizontal plane in each cultured cell, it was readily evident that vesicles filled with the fluorescent-labeled, folate-bound ribonuclease were forming on all regions of the cell surface, pinching off via endocytosis into the interior, and entering the cytoplasm. The vesicles, measuring […] across, were easily large enough to accommodate large biomolecules such as proteins and DNA plasmids.

[6] = system: white blood cells in whole human blood; conditions: 37° C., 2 hours
Procedure: Fluorescein-labeled RNase was either conjugated to folate or left unmodified (control) following the same general procedure set forth in Example 19. The folate-conjugated and control samples were then added to freshly drawn whole human blood, incubated at 37° C. for 2 hours and then washed thoroughly and examined under the fluorescence microscope.

pKa (physchem; pKa1): 2.5
pKa (physchem; pKa2): 4.5
Molecule: Nc1nc2ncc(CNc3ccc(C(=O)N[C@@H](CCC(=O)O)C(=O)O)cc3)nc2c(=O)[nH]1 [folic acid, Folic acid, reference compound]
Km [1]: 1.5 µM
Ka [2]: 500 pM

Molecule: fluorescein labeled insulin: non-biotinylated fluorescein labeled insulin, control
cellular internalization (fluorescent microscope) [3]: No evidence of internalization

B1: RNase-Folate: ^125 I bovine ribonuclease with 12-14 covalently bound folates per protein molecule (conjugate, UniProt P61823 27-150, looked up)
Ribonuclease pancreatic: KETAAAKFERQHMDSSTSAASSSNYCNQMMKSRNLTKDRCKPVNTFVHESLADVQAVCSQKNVACKNGQTNCYQSYSTMSITDCRETGSSKYPNCAYKTTQANKHIIVACEGNPYVPVHFDASV
modifications: 125I label; 12-14 folates
reduction of uptake by competitive inhibition ([4]; 100-fold molar excess of unligated folate): 7 fold
molecules per cell internalized ([4]; KB cells, after 30 minutes): 10^7 molecules per cell
uptake by HeLa cells (human HeLa cells): corresponding results
brain tissue uptake (delivery across the blood/brain barrier) [5]: brain tissue's preferential uptake of the folate-labeled protein

B2: RNase A-Rf (6): ^125 I ribonuclease derivatized with 6 riboflavins per protein (conjugate, UniProt P61823 27-150, looked up)
Ribonuclease pancreatic: B1 Ribonuclease pancreatic
modifications: 125I label; 6 riboflavins
notes: ^125 I ribonuclease derivatized with 6 riboflavins per protein
uptake of ^125 I-ribonuclease by BHK cells (BHK cells): highest rate of uptake

B3: folate-labeled RNase: Bovine ribonuclease labeled with fluorescein isothiocyanate and further labeled with folate (conjugate, UniProt P61823 27-150, looked up)
Ribonuclease pancreatic: B1 Ribonuclease pancreatic
modifications: fluorescein and folate conjugated
internal fluorescence (confocal microscope) (KB cells): Only the folate-labeled samples displayed any internal fluorescence
cell fluorescence (fluorescence microscope) [6]: found to fluoresce
